Measured values taken from patent publication US12460006B2, “Antibodies against integrin alpha 11 beta 1” (Momenta Pharmaceuticals, Inc., priority 2019, dated 2025).

T1: I domain of α11β1 (Homo sapiens, UniProt Q9UKX5)
T1 construct: An in-house generated I domain of α11β1 was used; made in house
T1 sequence (Q9UKX5 164-345 limits assumed): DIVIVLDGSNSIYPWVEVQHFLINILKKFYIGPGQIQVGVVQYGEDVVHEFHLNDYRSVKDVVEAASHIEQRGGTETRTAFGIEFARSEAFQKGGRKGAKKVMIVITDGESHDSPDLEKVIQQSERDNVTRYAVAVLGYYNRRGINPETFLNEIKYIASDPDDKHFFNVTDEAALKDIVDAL

B1: 10-L15: mouse anti-α11β1 mAb; VH SEQ ID NO: 119, VL SEQ ID NO: 120 (antibody, V domains shown)
VH: QVQLQQSGPELVRPGASVKMSCKASGYTFTSYWMHWVKQRPGQGLEWIGMIDPSNSETWLNQKFKDKATLNVDKSSNTAYMQLSSLTSEDSAVYYCARYDGYYDYWGQGTTLTVSS
VL: NIVLTQSPASLAVSLGQRATISCRASESVDSYGNSFMHWYQQKPGQPPKLLIYLASNVESGVPARFSGSGSRTDFTLTIDPVEADDAATYYCQQNNEDPWTFGGGTKLEIK
B2: 5A7: rabbit anti-α11β1 mAb; heavy chain SEQ ID NO: 193, light chain SEQ ID NO: 194 (antibody)
heavy: METGLRWLLLVAVLKGVQCQSLEESGGGLVQPEGSLTLACTASGFSFSSYYYICWVRQAPGTGLEWIGCINTGSDDTHYASWLKGRFTFSKASSTTLTLQMTSLTAADTATYFCARSSGSSDDAYDLWGPGTLVTVSSGQPKAPSVFPLAPCCGDTPSSTVTLGCLVKGYLPEPVTVTWNSGTLTNGVRTFPSVRQSSGLYSLSSVVSVTSSSQPVTCNVAHPATNTKVDKTVAPSTCSKPMCPPPELPGGPSVFIFPPKPKDTLMISRTPEVTCVVVDVSQDDPEVQFTWYINNEQVRTARPPLREQQFNSTIRVVSTLPIAHQDWLRGKEFKCKVHNKALPAPIEKTISKARGQPLEPKVYTMGPPREELSSRSVSLTCMINGFYPSDISVEWEKNGKAEDNYKTTPTVLDSDGSYFLYSKLSVPTSEWQRGDVFTCSVMHEALHNHYTQKSISRSPGK
light: MDTRAPTQLLGLLLLWLPGARCDVVMTQTPASVSEPVGGAVTIKCQASQSIGSNLAWYQHKPGQPPKLLIYFASSLASGVSSRFKGGRSGTQFTLTISDLECADAATYYCHCTYYPLSYVTFGGGTEVVVKGDPVAPTVLIFPPAADQVATGTVTIVCVANKYFPDVTVTWEVDGTTQTTGIENSKTPQNSADCTYNLSSTLTLTSTQYNSHKEYTCKVTQGTTSVVQSFNRGDC
B3: 5D7: rabbit anti-α11β1 mAb; heavy chain SEQ ID NO: 191, light chain SEQ ID NO: 192 (antibody)
heavy: METGLRWLLLVAVLKGVQCQEQLVESGGGLVQPEGSLTLTCKASGFDFSSNAMCWVRQAPGKGLEWIACIYNGDGSTYYASWVNGRFTISKTSSTTVTLQMTSLTAADTATYFCARGLSNWNRDNLWGPGTLVTVSSGQPKAPSVFPLAPCCGDTPSSTVTLGCLVKGYLPEPVTVTWNSGTLTNGVRTFPSVRQSSGLYSLSSVVSVTSSSQPVTCNVAHPATNTKVDKTVAPSTCSKPMCPPPELPGGPSVFIFPPKPKDTLMISRTPEVTCVVVDVSQDDPEVQFTWYINNEQVRTARPPLREQQFNSTIRVVSTLPIAHQDWLRGKEFKCKVHNKALPAPIEKTISKARGQPLEPKVYTMGPPREELSSRSVSLTCMINGFYPSDISVEWEKNGKAEDNYKTTPTVLDSDGSYFLYSKLSVPTSEWQRGDVFTCSVMHEALHNHYTQKSISRSPGK
light: MDTRAPTQLLGLLLLWLPGATFAQVLTQTPSSVSAAVGGTATINCQASQSLYSPKNLAWYQQTPGQPPKLLIYSASKLASGVPSRFKGSGSGTQFTLTISGVQCDDAAIYYCQGEFSCTTAACFAFGGGTEVVVKGDPVAPTVLIFPPAADQVATGTVTIVCVANKYFPDVTVTWEVDGTTQTTGIENSKTPQNSADCTYNLSSTLTLTSTQYNSHKEYTCKVTQGTTSVVQSFNRGDC
B4: 3B1: rabbit anti-α11β1 mAb; heavy chain SEQ ID NO: 201, light chain SEQ ID NO: 202 (antibody)
heavy: METGLRWLLLVAVLKGVQCQEQLEESGGGLVKPEGSLTLTCKASGFDLSSGYDMCWVRQAPGKGLEWIACIYADYSGSTYYASWVNGRFTISSSTSLNTVDLKMTSLTAADTATYFCARGATGNGGYGYYFNLWGPGTLVTVSSGQPKAPSVFPLAPCCGDTPSSTVTLGCLVKGYLPEPVTVTWNSGTLTNGVRTFPSVRQSSGLYSLSSVVSVTSSSQPVTCNVAHPATNTKVDKTVAPSTCSKPMCPPPELPGGPSVFIFPPKPKDTLMISRTPEVTCVVVDVSQDDPEVQFTWYINNEQVRTARPPLREQQFNSTIRVVSTLPIAHQDWLRGKEFKCKVHNKALPAPIEKTISKARGQPLEPKVYTMGPPREELSSRSVSLTCMINGFYPSDISVEWEKNGKAEDNYKTTPTVLDSDGSYFLYSKLSVPTSEWQRGDVFTCSVMHEALHNHYTQKSISRSPGK
light: MDTRAPTQLLGLLLLWLPGARCADIVMTQTPASVSEPVGGTVTIKCQASQNINSGLAWYQQKPGQPPKLLIYKASTLASGVSSRFKGSGSGTEFTLTISDLECADAATYYCQTYYYSSSSSDNAFGGGTEVVVKGDPVAPTVLIFPPAADQVATGTVTIVCVANKYFPDVTVTWEVDGTTQTTGIENSKTPQNSADCTYNLSSTLTLTSTQYNSHKEYTCKVTQGTTSVVQSFNRGDC

Assays:
[1] = tested on: CHO-K1 cells expressing human α11; assay: Cell adhesion inhibition (xCelligence), type I collagen; assay type: cell-based; conditions: Yes/No
Method in brief: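 CHO-K1 cells expressing human α11 (0.6×10^6 cells/mL) were preincubated with mAbs across a concentration range for 20 min at 37° C, then seeded on wells coated with 100 ng/mL type I collagen and blocked with 3% BSA. Impedance-based adhesion was recorded over 6 h, and maximum adhesion was compared with untreated control.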

I domain of α11β1 = biological target: T1, I domain of α11β1; assay: ELISA binding to in-house generated I domain of α11β1; conditions: Yes/No
Method in brief: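 Plate-coated antigen (0.25 μg/mL, overnight 4° C) probed with antibody dilution series 1 h at room temperature, then biotinylated anti-IgG and streptavidin-HRP, 1 h each. TMB substrate 5 min, stopped, absorbance at 450 nm; in-house I domain of α11β1 used as target.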

human α11β1 = human α11β1 (Homo sapiens, UniProt Q9UKX5); assay: ELISA binding to recombinant human α11β1; conditions: binding Yes/No
Method in brief: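 Absorbance at 450 nm measured binding of serially diluted antibodies to immobilized α11β1 (human or mouse, coated at 0.25 μg/mL). Antibodies were incubated 1 h at room temperature, then detected with biotinylated anti-IgG, streptavidin-HRP and TMB substrate.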

myofibroblasts (MF) = assay: FACS antibody binding to myofibroblasts; set-up: species or system human; conditions: binding Yes/No
Method in brief: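 Human pulmonary fibroblasts, serum-starved 24 h then TGFβ-1-treated 72 h to give myofibroblasts, were blocked with heat-inactivated FBS and stained with anti-α11 antibodies, then PE secondary, 30 min each at 4 °C, before 1% PFA fixation. Binding read by flow cytometry as PE geometric MFI of single cells.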

α1β1, α2β1 and/or α10β1 = assay: Counter-screen for cross-reactivity to other collagen receptors; assay type: binding, human; conditions: cross-reactivity to α1β1, α2β1, α10β1
Method in brief: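 Rat- and mouse-derived anti-α11β1 hybridoma supernatants or clones, first identified by ELISA against human and mouse α11β1, were counter-screened by ELISA against human α1β1, α2β1 and α10β1 to assess cross-reactivity to related collagen receptors.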

[2] = tested on: human pulmonary fibroblasts (HPFs); assay: FACS antibody binding to human pulmonary fibroblasts; conditions: binding Yes/No

human α11β1, sequence (Q9UKX5 23-1141 limits assumed): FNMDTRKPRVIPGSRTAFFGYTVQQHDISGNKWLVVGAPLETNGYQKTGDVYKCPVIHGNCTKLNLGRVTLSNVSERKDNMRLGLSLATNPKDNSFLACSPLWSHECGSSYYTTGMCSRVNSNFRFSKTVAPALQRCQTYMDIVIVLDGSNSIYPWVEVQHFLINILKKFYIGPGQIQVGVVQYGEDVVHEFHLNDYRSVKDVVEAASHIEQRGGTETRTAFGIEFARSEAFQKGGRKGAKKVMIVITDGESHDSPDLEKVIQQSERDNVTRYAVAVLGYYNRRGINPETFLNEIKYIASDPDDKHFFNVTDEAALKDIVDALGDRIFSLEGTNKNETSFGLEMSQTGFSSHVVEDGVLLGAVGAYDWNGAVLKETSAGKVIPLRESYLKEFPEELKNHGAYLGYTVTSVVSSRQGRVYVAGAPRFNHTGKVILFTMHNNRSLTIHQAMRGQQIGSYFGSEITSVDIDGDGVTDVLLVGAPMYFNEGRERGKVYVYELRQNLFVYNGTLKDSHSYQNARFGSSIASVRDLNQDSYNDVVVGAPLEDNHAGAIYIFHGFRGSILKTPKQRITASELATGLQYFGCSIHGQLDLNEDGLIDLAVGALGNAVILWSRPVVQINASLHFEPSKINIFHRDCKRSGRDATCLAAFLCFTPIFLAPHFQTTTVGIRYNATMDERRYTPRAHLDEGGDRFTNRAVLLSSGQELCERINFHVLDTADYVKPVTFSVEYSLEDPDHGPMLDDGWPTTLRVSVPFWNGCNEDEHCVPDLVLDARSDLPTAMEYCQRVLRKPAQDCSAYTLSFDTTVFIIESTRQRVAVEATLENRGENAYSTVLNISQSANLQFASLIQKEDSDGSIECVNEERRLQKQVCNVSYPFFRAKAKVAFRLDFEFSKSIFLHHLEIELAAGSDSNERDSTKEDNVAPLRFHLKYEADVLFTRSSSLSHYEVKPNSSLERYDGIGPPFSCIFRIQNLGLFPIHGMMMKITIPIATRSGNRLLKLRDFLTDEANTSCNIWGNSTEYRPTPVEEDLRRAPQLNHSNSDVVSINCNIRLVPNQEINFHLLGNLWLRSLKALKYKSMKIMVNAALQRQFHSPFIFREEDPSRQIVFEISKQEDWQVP
human α11β1, sequence (P05556 21-728 partner limits assumed): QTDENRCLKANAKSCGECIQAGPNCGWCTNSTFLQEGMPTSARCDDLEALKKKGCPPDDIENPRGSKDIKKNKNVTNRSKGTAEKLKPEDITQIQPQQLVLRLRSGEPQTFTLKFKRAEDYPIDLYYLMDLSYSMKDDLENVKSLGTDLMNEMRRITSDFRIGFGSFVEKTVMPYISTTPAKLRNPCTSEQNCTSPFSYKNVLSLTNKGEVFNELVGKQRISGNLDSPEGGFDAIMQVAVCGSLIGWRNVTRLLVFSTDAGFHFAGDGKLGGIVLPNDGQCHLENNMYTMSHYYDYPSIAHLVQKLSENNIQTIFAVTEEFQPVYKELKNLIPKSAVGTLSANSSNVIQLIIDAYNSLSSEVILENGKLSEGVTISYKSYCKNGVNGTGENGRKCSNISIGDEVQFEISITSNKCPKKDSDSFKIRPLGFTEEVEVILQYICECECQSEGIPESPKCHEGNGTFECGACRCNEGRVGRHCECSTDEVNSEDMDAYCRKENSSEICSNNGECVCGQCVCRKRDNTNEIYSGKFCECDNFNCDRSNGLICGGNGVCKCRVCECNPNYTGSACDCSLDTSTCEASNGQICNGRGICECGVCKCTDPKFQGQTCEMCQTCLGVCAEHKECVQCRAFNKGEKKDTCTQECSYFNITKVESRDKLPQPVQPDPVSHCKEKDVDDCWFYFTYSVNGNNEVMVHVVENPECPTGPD

Row | Molecule | Inhibition of CHO-K1 adhesion to collagen [1] | I Domain binding (I domain of α11β1) | Human α11β1 ELISA (human α11β1) | MF FACS (myofibroblasts (MF)) | Off Target (α1β1, α2β1 and/or α10β1) | HPF FACS [2]
1 | B1 | No | Yes | Yes | No | No | No
2 | B2 | Yes | No | Yes | Yes | No | No
3 | B3 | Yes | No | Yes | Yes | No | No
4 | B4 | Yes | No | Yes | Yes | No | No
